Consider twelve molecules from US20070066521, “Short RNA-binding proteins” (published 2007).

One data set addresses T1, E-AC2 (EACMCV AC2) (East African cassava mosaic Cameroon …).
T1 chain: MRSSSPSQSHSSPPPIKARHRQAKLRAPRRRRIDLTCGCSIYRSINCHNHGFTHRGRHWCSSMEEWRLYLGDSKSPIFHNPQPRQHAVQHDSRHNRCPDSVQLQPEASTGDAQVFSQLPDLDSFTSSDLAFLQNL
The experiment in a line: EMSA. The note with it: tags: GST fusion (pET41a), Ni-NTA purified; label: 5'-32P. In general terms: Mobility shift assays separate free from complexed probe on a gel.

In data set [1] the target is T2, S-AC4 (SLCMV AC4) (Sri Lankan cassava mosaic virus).
T2 chain: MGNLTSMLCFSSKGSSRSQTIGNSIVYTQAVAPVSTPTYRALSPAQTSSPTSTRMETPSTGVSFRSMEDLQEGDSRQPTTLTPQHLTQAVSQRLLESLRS
Put plainly: EMSA. As to conditions: tags: GST fusion (pET41a), Ni-NTA purified; label: 5'-32P.

Another data set concerns the target T3, E-AC4 (EACMCV AC4) (East African cassava mosaic Cameroon …).
T3 chain: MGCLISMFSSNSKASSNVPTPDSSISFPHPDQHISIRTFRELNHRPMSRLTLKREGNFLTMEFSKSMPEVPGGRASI
Put plainly: EMSA; data not shown. The note with it: tags: pET41a, Ni-NTA purified; label: 5'-32P.

The target of data set [2] is T2, S-AC4 (SLCMV AC4). The experiment in a line: EMSA; competed by 10-, 50-, 100-fold unlabelled miR165. As to conditions: tags: GST fusion (pET41a), Ni-NTA purified; label: 5'-32P.
In data set [3] the target is T2, S-AC4 (SLCMV AC4). The experiment in a line: EMSA; text cites SEQ ID NO:29 (DNA probe); RNA oligo listed as SEQ 38. As to conditions: tags: GST fusion (pET41a), Ni-NTA purified; label: 5'-32P.
Data set [4] addresses T2, S-AC4 (SLCMV AC4). The experiment in a line: EMSA; as efficient as unmodified. As to conditions: tags: GST fusion (pET41a), Ni-NTA purified; label: 5'-32P.

B1: miR159* (ssRNA)
RNA: GAGCUCCUUAAAGUUCAAACA
As for B1, the binding result with E-AC2 (EACMCV AC2) was “no binding”.

B2: miR159 (ssRNA)
RNA: UUUGGAUUGAAGGGAGCUCUA
Consider B2, for which the values for the binding result with S-AC4 (SLCMV AC4) [1], with E-AC2 (EACMCV AC2) and with E-AC4 (EACMCV AC4) were “binds”, “no binding” and “no binding”, respectively.

B3: miR165 (ssRNA)
RNA: UCGGACCAGGCUUCAUCCCCC
Take B3: the binding result in the data set with S-AC4 (SLCMV AC4) [2] was “binds”.

B4: miR34 (ssRNA)
RNA: AGGCAGUGUGGUUAGCUGGUUG
For B4, the binding result in the data set with S-AC4 (SLCMV AC4) [1] was “binds”.

B5: ta-siRNA siR255 (ssRNA)
RNA: AUGCGAUACAACCUGAAUCUU
Turning to B5, in the data set with S-AC4 (SLCMV AC4) [3], the binding result is given as “binds”.

B6: DmiR-165::DmiR-165* DNA duplex (dsDNA)
DNA 1: TCGGACCAGGCTTCATCCCCC
DNA 2: GGGGGATGAAGCCTGGTCCGA
On to B6, for which, in the data set with S-AC4 (SLCMV AC4) [1], the binding result was “no binding”.

B7: 2'-O-methyl miR165 (ssRNA)
RNA: UCGGACCAGGCUUCAUCCCCC
modifications: 2'-OMe at last (3') nucleotide
B7: in the data set with S-AC4 (SLCMV AC4) [4], the binding result is on record as “binds”.

B8: lin-4 (ssRNA)
RNA: UCCCUGAGACCUCAAGUGUGA
As to B8, in the data set with S-AC4 (SLCMV AC4) [1], the binding result is listed as “binds”.

B9: pre-miR159 first strand (ssRNA)
RNA: UAAAAAAGGAUUUGGUUAUAUGGAUUGCAUAUCUCAGGAGCUUUAACUUGCCCUGUUAAUGCUUUUACUCUUCUUUGGCUUGAAGGGAGCUCUAC
Regarding B9, the binding result with S-AC4 (SLCMV AC4) [1] was “no binding”.

B10: pre-miR159 duplex (dsRNA)
RNA 1: B9 RNA
RNA 2: GUAGAGCUCCUUAAAGUUCAAACAUGAGUUGAGCAGGGUAAAGAAAAGCUGCUAAGCUAUGGAUCCCAUAAGCCCUAAUCCUUGUAAAG
With B10, the binding result with S-AC4 (SLCMV AC4) [1] was “no binding”.

B11: DmiR-165 DNA (ssDNA)
DNA: TCGGACCAGGCTTCATCCCCC
For B11, in the data set with S-AC4 (SLCMV AC4) [1], the binding result is given as “no binding”.

B12: ta-siRNA siR255::siR255* duplex (dsRNA)
RNA 1: AUGCGAUACAACCUGAAUCUU
RNA 2: GAGAUUCAGGUUGCAUCGCGC
In the case of B12, in the data set with S-AC4 (SLCMV AC4) [1], the binding result is given as “binds”.
